{"source": "patent US20130039936A1", "about": "(published 2013)", "key": {"[1]": {"biological_target": "T1, HLA-A2 molecule on T2 cells (human)", "T1 construct": "also called HLA-A2.1; HLA-A2 molecules", "test": "T2 binding assay (flow cytometry, BB7.2 anti-HLA-A2 stain of peptide-loaded T2 cells)", "experimental": "Background fluorescence without BB7.2 was subtracted for each individual value. To compare the different peptides, FI_{0.5} (the peptide concentration that increases HLA-A2.1 expression by 50% over no peptide control background) was calculated from the titration curve for each peptide. […] Each assay was performed in triplicate, and data in this figure are representative of two experiments with similar results.\n(§1) Peptide binding capacity to the HLA-A2 molecule was measured by using the T2 cell line according to a protocol described previously (Peters et al., Bioinformatics 19(14):1765-1772, 2003). […] Cells were washed once with cold HBSS containing 0.1% BSA and incubated for 30 minutes at 4° C. with anti-HLA-A2.1 BB7.2 monoclonal antibody (1:40 dilution from hybridoma supernatant). After washing, cells were stained with FITC-labeled goat anti-mouse immunoglobulin (BD, San Jose, Calif.), and the level of HLA expression was measured by flow cytometry. HLA-A2 expression was quantified as fluorescence index (FI) according to the following formula: FI=[(geometric mean fluorescence intensity with peptide-geometric mean fluorescence intensity without peptide)/geometric mean fluorescence intensity without peptide]. Background fluorescence without BB7.2 was subtracted for each individual value. To compare the different peptides, FI_{0.5}, the peptide concentration that increases HLA-A2.1 expression by 50% over no peptide control background, was calculated from the titration curve for each peptide.\nThe binding affinity of the predicted peptides with HLA-A2 molecules was measured by the T2 binding assay."}, "[2]": {"biological_target": "T1, HLA-A2 molecule on T2 cells", "test": "T2 binding assay (flow cytometry, BB7.2 anti-HLA-A2 stain of peptide-loaded T2 cells)", "experimental": "as §1, with “peptide. […]” for “peptide.”", "remark": "listed apart in the source"}, "[3]": {"biological_target": "T1, HLA-A2 molecule on T2 cells", "test": "T2 binding assay, FI0.5 against wild type POTE 252", "experimental": "as §1"}, "[4]": {"biological_target": "T1, HLA-A2 molecule on T2 cells", "test": "T2 binding assay, FI0.5 against wild type POTE 323", "experimental": "as §1"}}, "note": "Like-named read-outs stand apart in the source and are kept apart here."}
{"binder": "KLMAKALLL", "note": "[POTE 252-260]", "values": [{"measurement": "FI0.5", "setting": "[1]", "result": 1.6, "unit": "µM"}, {"measurement": "FI0.5", "setting": "[2]", "result": 1.5, "unit": "µM"}]}
{"binder": "YLMAKALLL", "note": "[POTE 252-1Y]", "values": [{"measurement": "FI0.5", "setting": "[2]", "result": 0.9, "unit": "µM"}, {"measurement": "fold lower FI0.5 than POTE 252", "setting": "[3]", "result": "~2", "unit": "fold"}]}
{"binder": "KLAAKALLL", "note": "[POTE 252-3A]", "values": [{"measurement": "FI0.5", "setting": "[2]", "result": 16.9, "unit": "µM"}]}
{"binder": "KLFAKALLL", "note": "[POTE 252-3F]", "values": [{"measurement": "FI0.5", "setting": "[2]", "result": 1.5, "unit": "µM"}]}
{"binder": "KLMAKAALL", "note": "[POTE 252-7A]", "values": [{"measurement": "FI0.5", "setting": "[2]", "result": 4, "unit": "µM"}]}
{"binder": "KLMAKALLV", "note": "[POTE 252-9V]", "values": [{"measurement": "FI0.5", "setting": "[2]", "result": 0.8, "unit": "µM"}, {"measurement": "fold lower FI0.5 than POTE 252", "setting": "[3]", "result": "~2", "unit": "fold"}]}
{"binder": "KILEEIESV", "note": "[POTE 553-561]", "values": [{"measurement": "FI0.5", "setting": "[1]", "result": 5.6, "unit": "µM"}, {"measurement": "FI0.5", "setting": "[2]", "result": 2.6, "unit": "µM"}]}
{"binder": "YILEEIESV", "note": "[POTE 553-1Y]", "values": [{"measurement": "FI0.5", "setting": "[2]", "result": 0.024, "unit": "µM"}]}
{"binder": "KLLEEIESV", "note": "[POTE 553-2L]", "values": [{"measurement": "FI0.5", "setting": "[2]", "result": 0.1, "unit": "µM"}]}
{"binder": "KIFEEIESV", "note": "[POTE 553-3F]", "values": [{"measurement": "FI0.5", "setting": "[2]", "result": 0.3, "unit": "µM"}]}
{"binder": "KILEEIASV", "note": "[POTE 553-7A]", "values": [{"measurement": "FI0.5", "setting": "[2]", "result": 0.2, "unit": "µM"}]}
{"binder": "LLLEQNVDV", "note": "[POTE 323-331]", "values": [{"measurement": "FI0.5", "setting": "[1]", "result": 0.8, "unit": "µM"}, {"measurement": "FI0.5", "setting": "[2]", "result": 0.3, "unit": "µM"}]}
{"binder": "YLLEQNVDV", "note": "[POTE 323-1Y]", "values": [{"measurement": "FI0.5", "setting": "[2]", "result": 0.25, "unit": "µM"}]}
{"binder": "LLAEQNVDV", "note": "[POTE 323-3A]", "values": [{"measurement": "FI0.5", "setting": "[2]", "result": 0.4, "unit": "µM"}]}
{"binder": "LLFEQNVDV", "note": "[POTE 323-3F]", "values": [{"measurement": "fold better FI0.5 than wild-type POTE 323", "setting": "[4]", "result": "~3", "unit": "fold"}, {"measurement": "FI0.5", "setting": "[2]", "result": 0.09, "unit": "µM"}]}
{"binder": "LLLEQNADV", "note": "[POTE 323-7A]", "values": [{"measurement": "FI0.5", "setting": "[2]", "result": 2.78, "unit": "µM"}]}
{"binder": "GLTPLLLGV", "note": "[POTE 272-280]", "values": [{"measurement": "FI0.5", "setting": "[1]", "result": 0.9, "unit": "µM"}]}
